Reference: paper PMC2965767, “Identification and Genome-Wide Prediction of DNA Binding Specificities for the ApiAP2 Family of Regulators from the Malaria Parasite”
Residue numbers refer to the chain shown, from its start.

Legend:
[1] = molecular target: T1, PF13_0097 D1 (PF3D7_1317200, AP2 domain transcription factor AP2-FG, putative) (Plasmodium falciparum) (UniProt Q8IEE4); details: PBM; highest protein concentration obtained; buffer not given; scale: PBM E-score of the seed 8-mer
T1 sequence: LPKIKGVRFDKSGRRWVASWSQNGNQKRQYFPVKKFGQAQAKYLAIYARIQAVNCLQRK

[2] = molecular target: T2, PFL1900w DLD (PF3D7_1239200, AP2 domain transcription factor, putative) (Plasmodium falciparum) (UniProt Q8I531); details: PBM; highest protein concentration obtained; buffer not given; scale: PBM E-score of the seed 8-mer
T2 sequence: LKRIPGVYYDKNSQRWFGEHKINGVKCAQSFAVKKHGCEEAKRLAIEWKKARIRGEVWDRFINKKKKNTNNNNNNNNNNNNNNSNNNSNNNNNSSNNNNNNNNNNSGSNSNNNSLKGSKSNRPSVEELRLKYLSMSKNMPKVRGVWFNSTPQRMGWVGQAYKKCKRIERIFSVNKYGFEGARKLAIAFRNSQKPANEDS

[3] = molecular target: T3, PF13_0267 D1 (PF3D7_1350900, AP2 domain transcription factor AP2-O4, putative) (Plasmodium falciparum) (UniProt A0A5K1K8Z4); details: PBM; highest protein concentration obtained; buffer not given; scale: PBM E-score of the seed 8-mer
T3 sequence: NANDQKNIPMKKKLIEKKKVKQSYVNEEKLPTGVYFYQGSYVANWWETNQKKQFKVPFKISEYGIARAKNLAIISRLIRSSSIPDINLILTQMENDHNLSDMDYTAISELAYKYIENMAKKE

[4] = molecular target: T4, PF10_0075 D3ext (PF3D7_1007700, AP2 domain transcription factor AP2-I) (Plasmodium falciparum) (UniProt Q8IJW6); details: PBM; highest protein concentration obtained; buffer not given; scale: PBM E-score of the seed 8-mer
T4 sequence: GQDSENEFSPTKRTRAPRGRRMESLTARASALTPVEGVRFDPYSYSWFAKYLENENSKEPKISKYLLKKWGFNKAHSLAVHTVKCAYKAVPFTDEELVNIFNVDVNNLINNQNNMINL

[5] = molecular target: T5, PFL1075w D1 (PF3D7_1222400, AP2 domain transcription factor) (Plasmodium falciparum) (UniProt Q8I5J1); details: PBM; highest protein concentration obtained; buffer not given; scale: PBM E-score of the seed 8-mer
T5 sequence: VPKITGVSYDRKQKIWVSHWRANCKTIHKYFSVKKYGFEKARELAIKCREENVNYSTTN

[6] = molecular target: T6, PF10_0075 D1ext (PF3D7_1007700, AP2 domain transcription factor AP2-I) (Plasmodium falciparum) (UniProt Q8IJW6); details: PBM; highest protein concentration obtained; buffer not given; scale: PBM E-score of the seed 8-mer
T6 sequence: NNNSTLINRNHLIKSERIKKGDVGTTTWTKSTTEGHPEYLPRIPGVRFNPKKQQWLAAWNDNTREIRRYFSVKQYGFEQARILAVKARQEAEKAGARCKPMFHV

[7] = molecular target: T7, PFD0985w D2ext (ApiAP2) (Plasmodium falciparum) (UniProt Q8I1N6); details: PBM; highest protein concentration obtained; buffer not given; scale: PBM E-score of the seed 8-mer
T7 sequence: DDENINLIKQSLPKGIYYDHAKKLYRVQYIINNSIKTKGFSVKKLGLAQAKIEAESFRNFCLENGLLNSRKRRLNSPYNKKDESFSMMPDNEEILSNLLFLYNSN

[8] = molecular target: T8, PF11_0404 D1 (PF3D7_1139300, AP2 domain transcription factor, putative) (Plasmodium falciparum) (UniProt Q8IHX2); details: PBM; highest protein concentration obtained; buffer not given; scale: PBM E-score of the seed 8-mer
T8 sequence: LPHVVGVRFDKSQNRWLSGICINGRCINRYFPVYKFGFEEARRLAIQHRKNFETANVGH

[9] = molecular target: T9, PFL1085w D1ext (PF3D7_1222600, AP2 domain transcription factor AP2-G) (Plasmodium falciparum) (UniProt Q8I5I9); details: PBM; highest protein concentration obtained; buffer not given; scale: PBM E-score of the seed 8-mer
T9 sequence: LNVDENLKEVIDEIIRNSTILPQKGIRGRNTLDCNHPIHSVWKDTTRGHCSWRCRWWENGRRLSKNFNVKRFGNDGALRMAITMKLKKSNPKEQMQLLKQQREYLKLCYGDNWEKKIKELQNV

[10] = molecular target: T10, PFF0670w D2ext (PF3D7_0613800, AP2 domain transcription factor, putative) (Plasmodium falciparum) (UniProt C6KSY0); details: PBM; highest protein concentration obtained; buffer not given; scale: PBM E-score of the seed 8-mer
T10 sequence: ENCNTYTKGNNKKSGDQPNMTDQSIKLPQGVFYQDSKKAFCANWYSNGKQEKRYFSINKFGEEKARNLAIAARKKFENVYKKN

[11] = molecular target: T11, PFF0200c D1 (PF3D7_0604100, AP2 domain transcription factor) (Plasmodium falciparum) (UniProt C6KSN9); details: PBM; highest protein concentration obtained; buffer not given; scale: PBM E-score of the seed 8-mer
T11 sequence: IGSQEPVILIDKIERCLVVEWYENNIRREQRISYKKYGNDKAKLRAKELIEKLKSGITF

[12] = molecular target: T12, PF14_0633 D1 (PF3D7_1466400, AP2 domain transcription factor AP2-EXP) (Plasmodium falciparum) (UniProt Q8IKH2); details: PBM; highest protein concentration obtained; buffer not given; scale: PBM E-score of the seed 8-mer
T12 sequence: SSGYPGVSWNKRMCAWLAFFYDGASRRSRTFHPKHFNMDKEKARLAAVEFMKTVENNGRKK

[13] = molecular target: T13, PF14_0533 D1 (PF3D7_1456000, AP2 domain transcription factor, putative) (Plasmodium falciparum) (UniProt Q8IKR9); details: PBM; highest protein concentration obtained; buffer not given; scale: PBM E-score of the seed 8-mer
T13 sequence: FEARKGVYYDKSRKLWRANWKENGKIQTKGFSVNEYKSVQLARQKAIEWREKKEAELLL

PFD0985w D2ext (ApiAP2) = molecular target: T14, PFD0985w D2ext (ApiAP2) (Plasmodium falciparum, UniProt Q8I1N6 3258-3362); assay: EMSA; 5 mM MgCl2 with 10 mM EDTA; LightShift buffer, 2.5% glycerol, 50 mM KCl, 0.05% NP-40, 50 ng/uL poly(dI-dC); room temperature, 20 min; details: tags: N-terminal GST (pGEX-4T1), kept; label: 5' biotin
T14 sequence: T7 sequence

[14] = molecular target: PF10_0075 D3ext (PF3D7_1007700, AP2 domain transcription factor AP2-I) (Plasmodium falciparum, UniProt Q8IJW6 910-1027); assay: as above; details: tags: N-terminal GST (pGEX-4T1), kept; label: 5' biotin

## TGATCM / KGATCA [PF13_0097 Secondary motif 2]
[1]
  binding signal: > 0.45

## ACCGCGGT (double strand) [PFL1900w_DLD Secondary motif 2]
[2]
  binding signal: > 0.45

## ACCTAA (double strand) [PF13_0267 Secondary motif 2]
[3]
  binding signal: > 0.45

## ACRACATC / GATGTYGT [PFL1900w_DLD Secondary motif 1]
[2]
  binding signal: > 0.45

## GTGCAA (double strand) [PF10_0075_D3 Secondary motif 4]
[4]
  binding signal: > 0.45

## CTANTAG (double strand) [PF13_0267 Secondary motif 1]
[3]
  binding signal: > 0.45

## CTGTATAA (double strand) [PFL1075w Secondary motif 2]
[5]
  binding signal: > 0.45

## GTCGCGAC (double strand) [PF10_0075_D1 Secondary motif 3]
[6]
  binding signal: > 0.45

## GTGCACTA (double strand) [PF10_0075_D3 primary motif]
[4]
  binding signal: 0.496

## GTGYNYACAC / GTGTRNRCAC [PFD0985w_D2 Secondary motif 2]
[7]
  binding signal: > 0.45

## TAGAACAA (double strand) [PF11_0404_D1 primary motif]
[8]
  binding signal: 0.485

## RGGTCGTTA / TAACGACCY [PF10_0075_D1 Secondary motif 2]
[6]
  binding signal: > 0.45

## GTGGTC (double strand) [PFL1085w Secondary motif 2]
[9]
  binding signal: > 0.45

## WATTWCAC (double strand) [PFD0985w_D2 Secondary motif 1]
[7]
  binding signal: > 0.45

## ACCTAGGT (double strand) [PFF0670w_D2 Secondary motif 1]
[10]
  binding signal: > 0.45

## TAGATCGA (double strand) [PF11_0404_D1 Secondary motif 1]
[8]
  binding signal: > 0.45

## GGTTCCGA (double strand) [PF10_0075_D1 Secondary motif 5]
[6]
  binding signal: > 0.45

## ATTCTAGAA (double strand) [PF13_0267 primary motif]
[3]
  binding signal: 0.479

## TCTACAA (double strand) [PFL1900w_DLD primary motif]
[2]
  binding signal: 0.468

## TCGGKGCA / TGCMCCGA [PF10_0075_D1 Secondary motif 1]
[6]
  binding signal: > 0.45

## WGTGCACTRNA / TNYAGTGCACW [PFF0200c_D1 Secondary motif 3]
[11]
  binding signal: > 0.45

## TCACYCAR / YTGRGTGA [PF13_0097 Secondary motif 3]
[1]
  binding signal: > 0.45

## CCACACAC (double strand) [PFD0985w_D2 Secondary motif 3]
[7]
  binding signal: > 0.45

## MCGCACCC / GGGTGCGK [PFF0200c_D1 Secondary motif 2]
[11]
  binding signal: > 0.45

## GTGCGKTA / TAMCGCAC [PF10_0075_D3 Secondary motif 2]
[4]
  binding signal: > 0.45

## ARCATGCA / TGCATGYT [PF14_0633 Secondary motif 1]
[12]
  binding signal: > 0.45

## AGCTCAGA (double strand) [PF13_0097 primary motif]
[1]
  binding signal: 0.489

## CACACACAC (double strand) [PF14_0533 primary motif]
[13]
  binding signal: 0.5

## GGGTCGACCC (double strand) [PF10_0075_D1 primary motif]
[6]
  binding signal: 0.495

## CMTGCACCMC / GKGGTGCAKG [PFF0200c_D1 Secondary motif 1]
[11]
  binding signal: > 0.45

## AAGATCTT (double strand) [PFF0670w_D2 Secondary motif 2]
[10]
  binding signal: > 0.45

## GTGCGCAC (double strand) [PF10_0075_D3 Secondary motif 1]
[4]
  binding signal: > 0.45

## GCATGC (double strand) [PF14_0633 primary motif]
[12]
  binding signal: 0.5

## CTCTAGAG (double strand) [PFF0670w_D2 primary motif]
[10]
  binding signal: 0.495

## TGCTCAA (double strand) [PF13_0097 Secondary motif 1]
[1]
  binding signal: > 0.45

## TATATAGC (double strand) [PFL1075w Secondary motif 1]
[5]
  binding signal: > 0.45

## GTACTACT (double strand) [PFL1085w Secondary motif 1]
[9]
  binding signal: > 0.45

## ATATGCAC (double strand) [PF10_0075_D3 Secondary motif 3]
[4]
  binding signal: > 0.45

## GTGTTACAC (double strand) [PFD0985w_D2 primary motif]
[7]
  binding signal: 0.496

## GTGTGCA (double strand) [PF14_0533 Secondary motif 1]
[13]
  binding signal: > 0.45

## TATATATA (double strand) [PFL1075w primary motif]
[5]
  binding signal: 0.499

## GTGTAC (double strand) [PFL1085w primary motif]
[9]
  binding signal: 0.49

B1: No motif (dsDNA)
DNA 1: AATATTATAATAGTCGTAGCCATCAATAAAAAAAAATGGTAATATAGATTTTCGTTTATATT
DNA 2: AATATAAACGAAAATCTATATTACCATTTTTTTTTATTGATGGCTACGACTATTATAATATT
PFD0985w D2ext (ApiAP2)
  binding result: no binding

B2: msp10 (dsDNA)
DNA 1: TCAACAATTATTATATAATTAATTAGAAGTGCATTAGGTAACAACTGTCGAATAAATATAT
DNA 2: ATATATTTATTCGACAGTTGTTACCTAATGCACTTCTAATTAATTATATAATAATTGTTGA
[14]
  binding result: binds

B3: PFD0985w_D2-1 (motif rank) (dsDNA)
DNA 1: AATATTATAATAGTCGTAGCCATCAATGTGTAACACATGGTAATATAGATTTTCGTTTATATT
DNA 2: AATATAAACGAAAATCTATATTACCATGTGTTACACATTGATGGCTACGACTATTATAATATT
PFD0985w D2ext (ApiAP2)
  binding result: binds

B4: PFD0985w_D2-2 (motif rank) (dsDNA)
DNA 1: B3 DNA 1 with G28C, T29C, G30A, T31C, A33C, C34A, A35C
DNA 2: B3 DNA 2 with T29G, G30T, T31G, A33G, C34T, A35G, C36G
PFD0985w D2ext (ApiAP2)
  binding result: binds

B5: rhopH3 (dsDNA)
DNA 1: ATTAATTTAATATGTACGCAAGGTGCACACTGGTGCATTAAAAAAAAAATATATATTAAT
DNA 2: ATTAATATATATTTTTTTTTTAATGCACCAGTGTGCACCTTGCGTACATATTAAATTAAT
[14]
  binding result: binds

B6: msp1 (dsDNA)
DNA 1: AAATTGTGTAAATTCATATTCGATAAAGTGCATTAATTTTATTTATCAATTGTAAACATA
DNA 2: TATGTTTACAATTGATAAATAAAATTAATGCACTTTATCGAATATGAATTTACACAATTT
[14]
  binding result: binds
